From patent US20140274782A1, “AFFINITY REAGENTS AND METHODS FOR DETECTION, PURIFICATION, AND PROTEOMIC ANALYSIS OF METHYLATED PROTEINS” (The Board of Trustees of the Leland Stanford Junior …, priority 2013, published 2014)

Experiments:
[1] = test system: methylated proteins (H3, p53, RelA, SIRT1) in HeLa / 293T nuclear extract; experiment: Protein pull-down from nuclear extract with GSH-Sepharose coupled domain, Western blot; format: binding
Description: GSH-Sepharose coupled domain beads were generated for pull-down by incubating GSHSepharose resin with E. coli lysate containing sufficient 3×MBT for bead saturation. Bead-coupled 3×MBT was incubated with nuclear extract overnight and proteins that precipitated with the resin were analyzed by SDS-PAGE.
Recombinant GST-SIRT1 was expressed by baculoviral transduction of the Sf9 insect cell line as previously described (Levy et al. (2011) Nat. Immunol. 12, 29-36). A panel of enzymes was tested for ability to methylate recombinant SIRT1 using ^3H-SAM in in vitro methylation reactions (Kuo et al. (2011) Mol. Cell 44, 609-620). SIRT1K622R was generated by site-directed mutagenesis (Stratagene). For the pull-down experiment, 293T cells were transfected with a 10:1 enzyme:substrate DNA ratio. 150 μg of nuclear proteins were used for pull-downs with 3×MBT or 3×MBTD355N coupled GSH-Sepharose as described above.
GSH-Sepharose coupled domain beads were prepared for pull-down by expressing the domain in E. coli. Cells were lysed as described, and lysate was incubated overnight at 4° C. with GSH-Sepharose with a sufficient lysate-to-Sepharose ratio to result in Sepharose binding saturation. The GSH-Sepharose was then washed 3×5 minutes in binding buffer and resuspended in binding buffer to 50% slurry. 150 μg of nuclear proteins were incubated overnight at 4° C. with 15 μl 50% slurry of either 3×MBT or 3×MBTD355N coupled to GSH-Sepharose in binding buffer (total volume of about 150 μl). Beads were washed 3×5 minutes in 0.5 ml of binding buffer. Beads were boiled in 25 μl of 2× Laemmli buffer and supernatant was analyzed by SDS-PAGE and Western blotting.
For SETD6/RelA and SET8/p53 pull-down experiments, 293T cells were transfected with a 1:1 enzyme:substrate DNA ratio. 150 μg of nuclear proteins were incubated overnight at 4° C. with 15 μl 50% slurry of either 3×MBT or 3×MBTD355N coupled to GSH-Sepharose in binding buffer. […] Laemmli buffer was added to the supernatant to 1×, and the resulting samples analyzed by SDS-PAGE and Western blotting.

G9a SET domain = biological target: T1, G9a SET domain (Homo sapiens, UniProt Q96KQ7); experiment: ProtoArray on-chip in vitro methylation, detected with 3xFlag-3xMBT; format: biochemical; conditions: ProtoArrays bearing 9,500 recombinant human proteins
T1 construct: 50 μg of GST or recombinant GSTtagged G9a SET domain and the cofactor SAM
T1 sequence (Q96KQ7 1038-1155 limits assumed): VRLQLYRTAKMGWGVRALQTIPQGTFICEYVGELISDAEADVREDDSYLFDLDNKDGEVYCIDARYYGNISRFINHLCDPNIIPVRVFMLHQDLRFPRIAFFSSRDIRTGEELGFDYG
Description: The assay was conducted as previously described (Levy et al. (2011) Epigenetics Chromatin 4, 19). Briefly, a ProtoArray (Invitrogen, version 5.0) was incubated overnight with 50 μg of GST or recombinant GSTtagged G9a SET domain and the cofactor SAM.
Arrays were analyzed using GenePix Pro 6.1 software (Molecular Devices) and feature values were assigned to proteins using the array list provided by Invitrogen. We designated the following criteria for “hits”: GST array signal-to-noise ratio (SNR) less than or equal to 1.5, G9a array SNR greater than or equal to 10, and a difference between the G9a array SNR and the GST array SNR of greater than or equal to 12. Hits were individually visually validated. Proteins were removed from the list of potential substrates if irregular array features appeared to interfere with the array spots or SNR calculations.

[2] = test system: mono- and di-methylated lysine peptides (H4K20, p53K382 and other histone and non-histone peptides); experiment: Peptide pull-down assay with biotinylated peptides, Western blot; format: binding; conditions: GST fusions, FIG. 1B
Description: (§1) Peptide pull-down assays were performed as previously described (Shi et al. (2006) Nature 442, 96-99), using 1 μg protein and 1 μg peptide per condition in binding buffer (50 mM Tris pH 7.5, 150 mM NaCl, 0.05% NP-40). Peptide arrays were performed as previously described (Bua et al., supra).

[3] = biological target: T2, mono- and di-methylated lysine peptides (H4K20, p53K382 and other histone and non-histone peptides) (Homo sapiens, UniProt Q9Y468); experiment: as above; format: binding
T2 construct: made in house; host or cells: E. coli
T2 sequence (Q9Y468 258-598): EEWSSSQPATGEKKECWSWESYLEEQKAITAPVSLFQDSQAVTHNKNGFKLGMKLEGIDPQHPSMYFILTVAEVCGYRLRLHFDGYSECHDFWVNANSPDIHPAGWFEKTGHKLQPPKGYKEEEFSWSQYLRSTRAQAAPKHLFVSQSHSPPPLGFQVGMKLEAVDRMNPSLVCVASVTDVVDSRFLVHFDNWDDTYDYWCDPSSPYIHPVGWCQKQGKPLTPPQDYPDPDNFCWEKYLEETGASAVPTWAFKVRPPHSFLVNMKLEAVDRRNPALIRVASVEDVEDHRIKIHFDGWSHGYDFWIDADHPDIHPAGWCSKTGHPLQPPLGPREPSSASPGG
Description: as §1

[4] = test system: methylated histones (HeLa nucleosomes, calf thymus histones), p53K382me1, H3K9me2; experiment: Far Western assay; format: binding
Description: For Far Western assays, proteins were separated by SDS-PAGE and transferred to a PVDF membrane. Following blocking, membranes were incubated overnight with the indicated domain. Domain binding was determined using an epitope tag-specific antibody and appropriate HRP-conjugated secondary antibody.
For Far Western assays on purified HeLa nucleosomes and calf thymus histones, the indicated amounts of nucleosome or histone were separated by SDS-PAGE and transferred to a PVDF membrane. The membrane was blocked in milk prepared with Tris-buffered saline with 0.1% Tween (TBST). Membranes were incubated overnight at 4° C. with 1 μg/ml of the indicated domain in TBST. Domain binding was determined using an epitope tag-specific antibody and appropriate HRP-conjugated secondary antibody.
For the SET8/p53 Far Westerns, p53 was methylated in vitro as previously described (Kuo et al., 2011), with 5 μg enzyme and 1 μg substrate per 25 μl of reaction volume incubated at 30° C. overnight. Following the methylation reaction, PreScission Protease was added directly to the reaction mix and samples were incubated overnight at 4° C. Blotting was conducted as described above. G9a SET domain/recombinant H3 (New England BioLabs) samples were prepared similarly, without a GST cleavage step.

[5] = biological target: T3, over 100 distinct histone and non-histone peptides with different post-translational modifications (Homo sapiens, UniProt Q9Y468); experiment: Peptide array probed with GST-3×MBT; format: binding; conditions: FIG. 1E
T3 construct: made in house; host or cells: E. coli
T3 sequence (Q9Y468 258-598): T2 sequence (Q9Y468 258-598)
Description: as §1

- number of proteins detected on the G9a-methylated array but not on the control array (G9a SET domain): 112
- binding to non-methylated peptides ([3]; FIG. 1D): does not bind
- binding to tri-methylated peptides ([3]; FIG. 1D): binds very weakly
- effect of acetylation of a neighboring lysine and phosphorylation of an N-terminally adjacent serine on binding ([3]; FIG. 2E): did not affect
- effect of phosphorylation on a C-terminally adjacent serine on binding to mono- or di-methylated lysine ([3]; FIGS. 2A and 2B): decreased, but did not eliminate
- effect of arginine methylation one or two residues removed from the lysine methylation site on binding ([3]; FIGS. 2C and 2D): little effect
- binding to unmodified peptides, tri-methylated lysine peptides or peptides with other PTMs on peptide array [5]: did not bind
- number of peptides containing mono- and di-methylated lysine bound on peptide array ([5]; array of over 100 unique peptides): 41
B1: 3×MBT: three MBT repeats of L3MBTL1 (amino acids 190-530 of accession NP—056293.4), expressed as GST or Flag fusion; methyl-lysine affinity reagent (protein)
chain: T2 sequence (Q9Y468 258-598)
modifications: left off: a dimerising Fc or GST
- precipitation of 3× Flag-SIRT1 ([1]; 293T cells, only when G9a is co-expressed and K622 is intact): specifically precipitated
- precipitation of methylated proteins H3 and p53 ([1]; HeLa nuclear extract): precipitates
- precipitation of methylated RelA ([1]; nuclear extract of 293T cells co-expressing SETD6 and RelA): precipitates
- binding to mono- and di-methylated H4K20- and p53K382-containing peptides [2]: binds
- co-precipitation with panel of mono- and di-methylated peptides ([3]; histone and nonhistone peptides, FIG. 1C): co-precipitates with thirteen different mono- and di-methylated peptides
- Far Western detection of recombinant H3 dimethylated at lysine 9 (H3K9me2) by G9a SET domain [4]: specifically detects
- Far Western detection of recombinant p53 mono-methylated at lysine 382 by SET8 [4]: detected
- Far Western detection of histones ([4]; purified HeLa nucleosomes and calf thymus histones): detected
